US20260234247A1 (published 2026)

Assays:
Biotinylated LILRB2 [1] = target: T1, Biotinylated LILRB2 (UniProt Q8N423 22-460, limits assumed, biotinylated (sites not given)); test: epitope binning ELISA; coated antibody 1 ug/ml, biotinylated LILRB2; competitor LK-RB2-2 at 20 ug/ml
T1 construct: also called biotinylated-LILRB2 protein

Biotinylated LILRB2 [2] = target: T1, Biotinylated LILRB2; test: epitope binning ELISA; coated antibody 1 ug/ml, biotinylated LILRB2; competitor LK-RB2-24 at 20 ug/ml
Method: (§1) Binding epitope of a subset of anti-LILRB1 and anti-LILRB2 antibodies was analyzed by epitope binning ELISA. Briefly, a panel of testing antibodies were coated onto ELISA plate. 50 ul/well Biotinylated LILRB1 or LILRB2 and 50 ul/well of competing antibodies were added to the coated plate and incubated at 37° C. for 1 hour. After Streptavidin-HRP (1:5000) incubation and TMB development, the plates were read at 450 nm using Molecular device spectra max plus384.

Biotinylated LILRB2 [3] = target: T1, Biotinylated LILRB2; test: epitope binning ELISA; coated antibody 1 ug/ml, biotinylated LILRB2; competitor LK-RB2-14 at 20 ug/ml
Method: as §1

Biotinylated LILRB2 [4] = target: T1, Biotinylated LILRB2; test: epitope binning ELISA; coated antibody 1 ug/ml, biotinylated LILRB2; competitor hz73D1.v1 at 20 ug/ml
Method: as §1

Biotinylated LILRB2 [5] = target: T1, Biotinylated LILRB2; test: epitope binning ELISA; coated antibody 1 ug/ml, biotinylated LILRB2; competitor LK-RB2-15 at 20 ug/ml
Method: as §1

Biotinylated LILRB2 [6] = target: T1, Biotinylated LILRB2; test: epitope binning ELISA; coated antibody 1 ug/ml, biotinylated LILRB2; competitor J19.h1 at 20 ug/ml
Method: as §1

Biotinylated LILRB2 [7] = target: T1, Biotinylated LILRB2; test: epitope binning ELISA; coated antibody 1 ug/ml, biotinylated LILRB2; competitor LK-RB2-3 at 20 ug/ml
Method: as §1

human LILRB2-his = target: T2, human LILRB2-his (human, UniProt Q8N423 22-460, limits assumed); test: SPR (Biacore 8K), antibody captured via Fc, LILRB2-his as analyte, 1:1 model
T2 construct: Analyte of the Biacore run; not shown: His tag
T2 sequence (Q8N423 22-460 limits assumed): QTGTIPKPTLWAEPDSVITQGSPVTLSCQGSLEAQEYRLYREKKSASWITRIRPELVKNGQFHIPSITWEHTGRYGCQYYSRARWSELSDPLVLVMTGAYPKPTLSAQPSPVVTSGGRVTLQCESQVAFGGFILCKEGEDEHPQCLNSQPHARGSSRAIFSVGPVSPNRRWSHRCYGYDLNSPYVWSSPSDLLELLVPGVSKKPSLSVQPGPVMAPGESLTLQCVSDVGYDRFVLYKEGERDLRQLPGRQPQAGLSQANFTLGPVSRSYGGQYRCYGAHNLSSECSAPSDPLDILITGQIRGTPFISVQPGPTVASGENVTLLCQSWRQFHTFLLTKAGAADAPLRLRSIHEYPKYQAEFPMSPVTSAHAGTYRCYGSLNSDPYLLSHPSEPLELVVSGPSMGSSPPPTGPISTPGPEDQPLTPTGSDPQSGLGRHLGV

T1 sequence (Q8N423 22-460 limits assumed): as above

Row | Binder | Inhibition % (Biotinylated LILRB2 [1]) | Inhibition % (Biotinylated LILRB2 [2]) | Inhibition % (Biotinylated LILRB2 [3]) | Inhibition % (Biotinylated LILRB2 [4]) | Inhibition % (Biotinylated LILRB2 [5]) | Inhibition % (Biotinylated LILRB2 [6]) | Inhibition % (Biotinylated LILRB2 [7]) | Kd (human LILRB2-his) | koff (human LILRB2-his) | kon (human LILRB2-his)
1 | LK-RB2-15 (antibody, human IgG4 S228P, kappa, V domains shown, Anti-LILRB2 antibody from mouse hybridoma) VH: QIQLVQSGPELKKPGETVKISCKASGYTFTTYGMSWVKQAPGKGLKWMGWINVYSGVPTYADDFKGRFAFSLEISASTAYLQINNLKDEDTATYFCARRKDYSGHCFDYWGQGTTLTVSS VL: DIVLTQSPASLAVSLGQRATFSCRASESVDTYGISFMHWYQQKPGQPPKLLIYRASNLESGIPARFSGSGSRTDFTLTINPVETDDVATYYCQQSKKEPYTFGGGTKLEIKR | 47.1% | 96.8% | 85.4% | 15.1% | 94.3% | 8% | 22.1% |  |  | 
2 | LK-RB2-14 (antibody, human IgG4 S228P, kappa, V domains shown, Anti-LILRB2 antibody from mouse hybridoma) VH: QVQLKQSGPGLVQPSQSLSITCTVSGFSLTSYGVHWVRQSPGKGLEWLGVIWRGGSTDYNAAFMSRLSITKDNSKSQVFFKMNSLQADDTAIYYCAKNEGDSTVVAWYFDVWGTGTTVTVSS VL: DIQMTQTTSSLSASLGDRVTISCSASQGISNYLNWFQQKPDGTVKLLIYYTSSLHSGVPSRFSGSGSGTDYSLTISNLEPEDIATYYCQQYSKLPLTFGAGTKLELKR | 97.7% | 94.3% | 90.6% | 92.7% | 91.1% | 77.4% | 29.8% |  |  | 
3 | LK-RB2-3 (antibody, human IgG4 S228P, kappa, V domains shown, Anti-LILRB2 antibody from mouse hybridoma) VH: QLQLQQSDAELVKPGASVKISCKVSGYSFTDHTIHWMKQRPEQGLEWIGYIYPRDGSTKENEKFTGKATLTADKSSSTAYMQLTSLTSEDSAVYFCTGSGFDYWGQGTSLTVSS VL: DIKMTQSPSSMYASLGERVTITCKASQDIKSYLSWFQQKPGKSPKTLIYRANRLVDGVPSRFSGSGSGQDYSLTINSLEYEDMEIYYCLQYDEFPYTFGGGTKLEIKR | 96.9% | 32.2% | 24.9% | 33.7% | 5% | 9.71% | 96.7% |  |  | 
4 | LK-RB2-2 (antibody, human IgG4 S228P, kappa, V domains shown, Anti-LILRB2 antibody from mouse hybridoma; parental antibody of LK-RB2-2.h1 to h3) VH: DVKLEESGEGLVKPGGSLKLSCAASGFTFSSYAMSWVRQTPEKRLEWVAYISSGGDYFHYADTVKGRFTISRDNARNTLYLQMSSLKSEDTAMYYCTREGAHYDSSYLAWFAHWGQGTLVTVSA VL: DIQMTQSPASLSVSVGETVTITCRASENIYSNLAWYQQRQGKSPQLLVYAATNLADGVPSRFSGSGSGTQYSLKINSLQSEDFGSYYCQQFWDNPLTFGAGTKLELKR | 97.8% | 17.7% | 89.4% | 92.8% | 13.6% | 69.6% | 93.9% | 168 pM | 0.000134 s⁻¹ | 800000 M⁻¹ s⁻¹
5 | hz73D1.v1 (antibody, human IgG4 S228P, kappa, V domains shown) VH: QVQLVQSGAEVKKPGASVKVSCKASGYTFTDYYINWVRQAPGQGLEWMGNVNPNDGGTTYNQKFKGRVTMTTDTSTSTAYMELRSLRSDDTAVYYCARREIYFYGTIYYYAMDYWGQGTLVTVSS VL: DIQLTQSPSFLSASVGDRVTITCRASESVDYYGNSFMYWYQQKPGKAPKLLIYFASNLESGVPSRFSGSGSGTEFTLTISSLQPEDFATYYCQQNNEDPWTFGGGTKVEIKR | 97.8% | 22.4% | 91.8% | 96.8% | 6.43% | 74.8% | 65.3% |  |  | 
6 | J19.h1 (antibody, human IgG4 S228P, kappa, V domains shown) VH: QITLKESGPTLVKPTQTLTLTCTFSGFSLNTYAMGVSWIRQPPGKALEWLASIWWNGNKYNNPSLKSRLTVTKDTSKNQVVLTMTNMDPVDTATYYCAHSRIIRFTDYVMDAWGQGTLVTVSS VL: DIQMTQSPSSLSTSVGDRVTITCRASEDIYNDLAWYQQKPGKAPKLLIYNANSLHTGVASRFSGSGSGTDFTFTISSLQPEDVATYFCQQYYDYPLTFGQGTKLEIKR | 97.8% | 44.5% | 96.1% | 95.9% | 17.5% | 92.5% | 93.9% |  |  | 
